Target: APP-Avi-soluble human LOX-1(61-273) (human, UniProt P78380 61-273)
Assay: SET, IgG vs soluble human LOX-1
Method: Affinity determination for anti-LOX-1 IgGs using Solution Equilibrium Titration (SET) was basically performed as described in the literature (Friguet et al., 1985 J Immunol Methods 77: 305-319). The assays were performed in a 96-well polypropylene plate (Thermo Scientific, Catalog no. AB-1127) using a constant concentration of LOX-1 antibody mixed with different concentrations of non-biotinylated human or cynomolgus monkey LOX-1 protein and incubated at 22° C. for 14 hours with constant shaking (300 rpm).
On a pre-blocked MSD plate (Meso Scale Discovery, catalog no. L21SA) biotinylated human or cynomolgus monkey soluble LOX-1 protein was immobilized and washed afterwards. The equilibrium binding reactions were then applied to the MSD plate with immobilized LOX-1 and incubated for 30 min. The unbound material was removed by washing the plate, and the captured antibody was detected by adding Sulfo-tagged goat anti-human IgG (Meso Scale Discovery, catalog no. R3AJ-1). After incubation and washing 1×MSD read buffer T(Meso Scale Discovery, catalog no. R92TC-2) was added and the plate was developed using a Sector Imager 6000 (Meso Scale Discovery). The data were transferred to Excel for analysis and plotted using GraphPad Prism v5. The KD values were determined by fitting the data to the following equation: […]

Binder	Kd
MOR021434 (antibody, V domains shown, IgG (human IgG1f LALA); parent MOR20159 with the printed HCDR2 stretch exchanged) VH: QVQLVQSGAEVKKPGSSVKVSCKASGGTFSDYAISWVRQAPGQGLEWMGGIVPILGAANYAQKFQGRVTITADESTSTAYMELSSLRSEDTAVYYCARDSSTSYYYYFDYWGQGTLVTVSS VL: DIQMTQSPSSLSASVGDRVTITCRASQDINSWLAWYQQKPGKAPKLLIYQASNLQSGVPSRFSGSGSGTDFTLTISSLQPEDFATYYCQQIDHTPFTFGQGTKVEIKR	7 pM
MOR021438 (antibody, V domains shown, IgG (human IgG1f LALA); parent MOR20159 with the printed LCDR3 stretch exchanged) VH: QVQLVQSGAEVKKPGSSVKVSCKASGGTFSDYAISWVRQAPGQGLEWMGGIVPIVGTANYAQKFQGRVTITADESTSTAYMELSSLRSEDTAVYYCARDSSTSYYYYFDYWGQGTLVTVSS VL: DIQMTQSPSSLSASVGDRVTITCRASQDINSWLAWYQQKPGKAPKLLIYQASNLQSGVPSRFSGSGSGTDFTLTISSLQPEDFATYYCQQMHRHPITFGQGTKVEIKR	2 pM
MOR021436 (antibody, V domains shown, IgG (human IgG1f LALA); parent MOR20159 with the printed LCDR3 stretch exchanged) VH: QVQLVQSGAEVKKPGSSVKVSCKASGGTFSDYAISWVRQAPGQGLEWMGGIVPIVGTANYAQKFQGRVTITADESTSTAYMELSSLRSEDTAVYYCARDSSTSYYYYFDYWGQGTLVTVSS VL: DIQMTQSPSSLSASVGDRVTITCRASQDINSWLAWYQQKPGKAPKLLIYQASNLQSGVPSRFSGSGSGTDFTLTISSLQPEDFATYYCQQMQTSLITFGQGTKVEIKR	4 pM
MOR021439 (antibody, V domains shown, IgG (human IgG1f LALA); parent MOR20159 with the printed LCDR3 stretch exchanged) VH: QVQLVQSGAEVKKPGSSVKVSCKASGGTFSDYAISWVRQAPGQGLEWMGGIVPIVGTANYAQKFQGRVTITADESTSTAYMELSSLRSEDTAVYYCARDSSTSYYYYFDYWGQGTLVTVSS VL: DIQMTQSPSSLSASVGDRVTITCRASQDINSWLAWYQQKPGKAPKLLIYQASNLQSGVPSRFSGSGSGTDFTLTISSLQPEDFATYYCQQMHRFPMTFGQGTKVEIKR	3 pM
MOR021441 (antibody, V domains shown, IgG (human IgG1f LALA); parent MOR20159 with the printed LCDR3 stretch exchanged) VH: QVQLVQSGAEVKKPGSSVKVSCKASGGTFSDYAISWVRQAPGQGLEWMGGIVPIVGTANYAQKFQGRVTITADESTSTAYMELSSLRSEDTAVYYCARDSSTSYYYYFDYWGQGTLVTVSS VL: DIQMTQSPSSLSASVGDRVTITCRASQDINSWLAWYQQKPGKAPKLLIYQASNLQSGVPSRFSGSGSGTDFTLTISSLQPEDFATYYCQQMKTFPITFGQGTKVEIKR	3 pM
MOR021437 (antibody, V domains shown, IgG (human IgG1f LALA); parent MOR20159 with the printed LCDR3 stretch exchanged) VH: QVQLVQSGAEVKKPGSSVKVSCKASGGTFSDYAISWVRQAPGQGLEWMGGIVPIVGTANYAQKFQGRVTITADESTSTAYMELSSLRSEDTAVYYCARDSSTSYYYYFDYWGQGTLVTVSS VL: DIQMTQSPSSLSASVGDRVTITCRASQDINSWLAWYQQKPGKAPKLLIYQASNLQSGVPSRFSGSGSGTDFTLTISSLQPEDFATYYCQQMKISLITFGQGTKVEIKR	4 pM
MOR021440 (antibody, V domains shown, IgG (human IgG1f LALA); parent MOR20159 with the printed LCDR3 stretch exchanged) VH: QVQLVQSGAEVKKPGSSVKVSCKASGGTFSDYAISWVRQAPGQGLEWMGGIVPIVGTANYAQKFQGRVTITADESTSTAYMELSSLRSEDTAVYYCARDSSTSYYYYFDYWGQGTLVTVSS VL: DIQMTQSPSSLSASVGDRVTITCRASQDINSWLAWYQQKPGKAPKLLIYQASNLQSGVPSRFSGSGSGTDFTLTISSLQPEDFATYYCQQMQESLLTFGQGTKVEIKR	6 pM
MOR021454 (antibody, V domains shown, IgG (human IgG1f LALA); parent MOR20151 with the printed HCDR2 stretch exchanged) VH: QVQLVESGGGLVKPGGSLRLSCAASGFTFSSYALSWVRQAPGKGLEWVGRIRHYKWGGTTEYAAPVKGRFTISRDDSKNTLYLQMNSLKTEDTAVYYCARDFWADHYYYFDYWGQGTLVTVSS VL: DIALTQPASVSGSPGQSITISCTGTSSDVGYINYVNWYQQHPGKAPKLMIYEVSNRPSGVSNRFSGSKSGNTASLTISGLQAEDEADYYCASWDWYDNVVFGGGTKLTVLG	0.7 pM
MOR021457 (antibody, V domains shown, IgG (human IgG1f LALA); parent MOR20151 with the printed HCDR2 stretch exchanged) VH: QVQLVESGGGLVKPGGSLRLSCAASGFTFSSYALSWVRQAPGKGLEWVGRTRMWTVGYTTHYAASVKGRFTISRDDSKNTLYLQMNSLKTEDTAVYYCARDFWADHYYYFDYWGQGTLVTVSS VL: DIALTQPASVSGSPGQSITISCTGTSSDVGYINYVNWYQQHPGKAPKLMIYEVSNRPSGVSNRFSGSKSGNTASLTISGLQAEDEADYYCASWDWYDNVVFGGGTKLTVLG	1 pM
MOR021456 (antibody, V domains shown, IgG (human IgG1f LALA); parent MOR20151 with the printed HCDR2 stretch exchanged) VH: QVQLVESGGGLVKPGGSLRLSCAASGFTFSSYALSWVRQAPGKGLEWVGRIRYWPDGYTTHYAASVKGRFTISRDDSKNTLYLQMNSLKTEDTAVYYCARDFWADHYYYFDYWGQGTLVTVSS VL: DIALTQPASVSGSPGQSITISCTGTSSDVGYINYVNWYQQHPGKAPKLMIYEVSNRPSGVSNRFSGSKSGNTASLTISGLQAEDEADYYCASWDWYDNVVFGGGTKLTVLG	2 pM
MOR021458 (antibody, V domains shown, IgG (human IgG1f LALA); parent MOR20144 with the printed HCDR2 stretch exchanged) VH: QVQLLESGGGLVQPGGSLRLSCAASGFTFSDYALHWVRQAPGKGLEWVSSISYVGGFIYYADSVKGRFTISRDNSKNTLYLQMNSLRAEDTAVYYCARSPGLTSYHDSWGQGTLVTVSS VL: DIVLTQPPSVSGAPGQRVTISCSGSSSNIGSNYVSWYQQLPGTAPKLLIHSNSHRPSGVPDRFSGSKSGTSASLAITGLQAEDEADYYCQSWDYESERVVFGGGTKLTVLG	0.6 pM
MOR021461 (antibody, V domains shown, IgG (human IgG1f LALA); parent MOR20144 with the printed HCDR2 stretch exchanged) VH: QVQLLESGGGLVQPGGSLRLSCAASGFTFSDYALHWVRQAPGKGLEWVSVISYAGGFTYYADSVKGRFTISRDNSKNTLYLQMNSLRAEDTAVYYCARSPGLTSYHDSWGQGTLVTVSS VL: DIVLTQPPSVSGAPGQRVTISCSGSSSNIGSNYVSWYQQLPGTAPKLLIHSNSHRPSGVPDRFSGSKSGTSASLAITGLQAEDEADYYCQSWDYESERVVFGGGTKLTVLG	0.2 pM
MOR021459 (antibody, V domains shown, IgG (human IgG1f LALA); parent MOR20144 with the printed HCDR2 stretch exchanged) VH: QVQLLESGGGLVQPGGSLRLSCAASGFTFSDYALHWVRQAPGKGLEWVSVISYVGGFKFYADSVKGRFTISRDNSKNTLYLQMNSLRAEDTAVYYCARSPGLTSYHDSWGQGTLVTVSS VL: DIVLTQPPSVSGAPGQRVTISCSGSSSNIGSNYVSWYQQLPGTAPKLLIHSNSHRPSGVPDRFSGSKSGTSASLAITGLQAEDEADYYCQSWDYESERVVFGGGTKLTVLG	0.4 pM

Now from value to binder:

Kd	Binder
1.3 pM	MOR021463 (antibody, V domains shown, IgG (human IgG1f LALA); parent MOR20144 with the printed HCDR2 stretch exchanged) VH: QVQLLESGGGLVQPGGSLRLSCAASGFTFSDYALHWVRQAPGKGLEWVSVISYMGGFKYYADSVKGRFTISRDNSKNTLYLQMNSLRAEDTAVYYCARSPGLTSYHDSWGQGTLVTVSS VL: DIVLTQPPSVSGAPGQRVTISCSGSSSNIGSNYVSWYQQLPGTAPKLLIHSNSHRPSGVPDRFSGSKSGTSASLAITGLQAEDEADYYCQSWDYESERVVFGGGTKLTVLG
1 pM	MOR021469 (antibody, V domains shown, IgG (human IgG1f LALA); parent MOR20144 with the printed HCDR2 stretch exchanged) VH: QVQLLESGGGLVQPGGSLRLSCAASGFTFSDYALHWVRQAPGKGLEWVSAISYQGGFIFYADSVKGRFTISRDNSKNTLYLQMNSLRAEDTAVYYCARSPGLTSYHDSWGQGTLVTVSS VL: DIVLTQPPSVSGAPGQRVTISCSGSSSNIGSNYVSWYQQLPGTAPKLLIHSNSHRPSGVPDRFSGSKSGTSASLAITGLQAEDEADYYCQSWDYESERVVFGGGTKLTVLG
1.6 pM	MOR021465 (antibody, V domains shown, IgG (human IgG1f LALA); parent MOR20144 with the printed HCDR2 stretch exchanged) VH: QVQLLESGGGLVQPGGSLRLSCAASGFTFSDYALHWVRQAPGKGLEWVSVISYQGAFIYYADSVKGRFTISRDNSKNTLYLQMNSLRAEDTAVYYCARSPGLTSYHDSWGQGTLVTVSS VL: DIVLTQPPSVSGAPGQRVTISCSGSSSNIGSNYVSWYQQLPGTAPKLLIHSNSHRPSGVPDRFSGSKSGTSASLAITGLQAEDEADYYCQSWDYESERVVFGGGTKLTVLG
0.9 pM	MOR021467 (antibody, V domains shown, IgG (human IgG1f LALA); parent MOR20144 with the printed HCDR2 stretch exchanged) VH: QVQLLESGGGLVQPGGSLRLSCAASGFTFSDYALHWVRQAPGKGLEWVSVISYQGGFTFYADSVKGRFTISRDNSKNTLYLQMNSLRAEDTAVYYCARSPGLTSYHDSWGQGTLVTVSS VL: DIVLTQPPSVSGAPGQRVTISCSGSSSNIGSNYVSWYQQLPGTAPKLLIHSNSHRPSGVPDRFSGSKSGTSASLAITGLQAEDEADYYCQSWDYESERVVFGGGTKLTVLG
0.5 pM	MOR021470 (antibody, V domains shown, IgG (human IgG1f LALA); parent MOR20144 with the printed HCDR2 stretch exchanged) VH: QVQLLESGGGLVQPGGSLRLSCAASGFTFSDYALHWVRQAPGKGLEWVSVISYAGAFTYYADSVKGRFTISRDNSKNTLYLQMNSLRAEDTAVYYCARSPGLTSYHDSWGQGTLVTVSS VL: DIVLTQPPSVSGAPGQRVTISCSGSSSNIGSNYVSWYQQLPGTAPKLLIHSNSHRPSGVPDRFSGSKSGTSASLAITGLQAEDEADYYCQSWDYESERVVFGGGTKLTVLG
0.6 pM	MOR021466 (antibody, V domains shown, IgG (human IgG1f LALA); parent MOR20144 with the printed HCDR2 stretch exchanged) VH: QVQLLESGGGLVQPGGSLRLSCAASGFTFSDYALHWVRQAPGKGLEWVSVISYMGGFKFYADSVKGRFTISRDNSKNTLYLQMNSLRAEDTAVYYCARSPGLTSYHDSWGQGTLVTVSS VL: DIVLTQPPSVSGAPGQRVTISCSGSSSNIGSNYVSWYQQLPGTAPKLLIHSNSHRPSGVPDRFSGSKSGTSASLAITGLQAEDEADYYCQSWDYESERVVFGGGTKLTVLG
0.9 pM	MOR021462 (antibody, V domains shown, IgG (human IgG1f LALA); parent MOR20144 with the printed HCDR2 stretch exchanged) VH: QVQLLESGGGLVQPGGSLRLSCAASGFTFSDYALHWVRQAPGKGLEWVSGISYQGGFIFYADSVKGRFTISRDNSKNTLYLQMNSLRAEDTAVYYCARSPGLTSYHDSWGQGTLVTVSS VL: DIVLTQPPSVSGAPGQRVTISCSGSSSNIGSNYVSWYQQLPGTAPKLLIHSNSHRPSGVPDRFSGSKSGTSASLAITGLQAEDEADYYCQSWDYESERVVFGGGTKLTVLG

Reference: patent US20170260272A1 (Novartis, published 2017)
